Biological target: human serum albumin (human) (UniProt P02768)
Test: ITC

dH: -8.9 kcal/mol
stoichiometry N: 0.84
Substance: dalbavancin (peptide)

Reference: doi:10.1101/2020.09.09.287375
